Measurements as given in patent US20250249120A1 (CHILDREN S HEALTH CARE D B A CHILDREN S MINNESOTA, published 2025).

Molecular target: T1, CD179a (VpreB1) component of the pre-BCR surrogate light chain, on B-ALL cells (human, UniProt P12018 20-145)
T1 sequence (looked up): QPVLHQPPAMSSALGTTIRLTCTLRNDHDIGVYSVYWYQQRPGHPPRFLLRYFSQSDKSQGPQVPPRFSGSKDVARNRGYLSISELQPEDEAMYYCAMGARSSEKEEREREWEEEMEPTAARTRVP
Assay: cell-based or functional assay

B1: calicheamicin-based antibody-drug conjugate (ADC) against CD179a (antibody, human IgG1, kappa, V domains shown)
VH: EVQLVESGGGLVKPGGSLRLSCAASGFTFSNFEMNWVRQAPGKGLEWVSGISSNGRYINYADSVKGRFTISRDNAKNSLYLQMNSLRAEDTAVYYCARVVDFDQDYNGFDYWGQGTLVTVSS
VL: DIQLTQSPSFLSASVGDRVTITCRASQGISTDLNWYQQKPGKAPKLLIYAASNLESGVPSRFSGSGSGTEFTLTISSLQPEDFATYYCQQSYNWPYTFGGGTKVEIKR
modifications: AcBut-calicheamicin linker-payload, DAR of 5:1, conjugated residues not stated
  IC50 (the inhibitory concentration that causes 50% of cells to die), Nalm6 B-ALL cell line: 0.059 µg/mL
